{"source": "paper PMC6159513", "binders": {"B1": {"name": "dsRNA (dsRNA)", "RNA 1": "UUAGGGUUAGGGUUAGGGUUAGGG", "RNA 2": "CCCUAACCCUAACCCUAACCCUAA"}, "B2": {"name": "dsDNA (dsDNA)", "DNA 1": "AGGGTTAGGGTTAGGGTTAGGG", "DNA 2": "CCCTAACCCTAACCCTAACCCT"}}, "assay_in_all_cases": "EMSA", "key": {"[1]": {"target": "TLS/FUSΔR (UniProt P35637 1-506)", "sequence (P35637 1-506, stated change not applied)": "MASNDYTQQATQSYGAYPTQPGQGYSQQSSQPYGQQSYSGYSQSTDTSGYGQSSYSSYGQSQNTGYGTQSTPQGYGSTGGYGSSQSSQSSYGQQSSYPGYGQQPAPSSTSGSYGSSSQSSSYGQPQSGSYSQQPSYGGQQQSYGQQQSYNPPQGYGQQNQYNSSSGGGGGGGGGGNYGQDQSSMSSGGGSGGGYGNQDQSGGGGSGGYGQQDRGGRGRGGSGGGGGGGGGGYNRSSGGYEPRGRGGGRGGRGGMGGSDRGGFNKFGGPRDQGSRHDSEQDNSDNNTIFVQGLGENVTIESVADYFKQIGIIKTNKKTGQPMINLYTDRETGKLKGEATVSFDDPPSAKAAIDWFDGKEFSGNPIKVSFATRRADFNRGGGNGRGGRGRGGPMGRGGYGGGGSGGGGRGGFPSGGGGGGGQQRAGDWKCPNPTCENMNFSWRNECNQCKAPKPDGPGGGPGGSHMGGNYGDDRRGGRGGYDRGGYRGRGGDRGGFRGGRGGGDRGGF"}, "[2]": {"target": "TLS/FUSΔP (UniProt P35637 1-526, del449-468)"}, "[3]": {"target": "T1, RGG3ΔRGG (UniProt P35637 449-526, del468-506)", "T1 chain": "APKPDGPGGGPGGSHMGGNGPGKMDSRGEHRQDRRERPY"}, "[4]": {"target": "TLS/FUS (UniProt P35637 1-526)"}, "[5]": {"target": "RGG3 (UniProt P35637 449-526)"}, "[6]": {"target": "RGG3ΔP (UniProt P35637 469-526)"}, "[7]": {"target": "RBD (RGG1-RGG2-RGG3 containing) (UniProt P35637 212-526)", "sequence (P35637 212-526)": "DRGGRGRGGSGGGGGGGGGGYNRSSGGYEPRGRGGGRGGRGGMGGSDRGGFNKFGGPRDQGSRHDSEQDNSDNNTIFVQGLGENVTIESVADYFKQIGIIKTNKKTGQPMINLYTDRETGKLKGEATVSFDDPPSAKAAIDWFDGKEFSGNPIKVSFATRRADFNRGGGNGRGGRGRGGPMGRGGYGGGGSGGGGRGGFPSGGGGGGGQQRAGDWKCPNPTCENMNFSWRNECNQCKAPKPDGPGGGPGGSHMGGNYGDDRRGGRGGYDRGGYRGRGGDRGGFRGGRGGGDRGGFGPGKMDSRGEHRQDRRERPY"}}, "data": [{"binder": "B1", "values": [{"measurement": "binding result", "setting": "[1]", "value": "no binding"}, {"measurement": "binding result", "setting": "[2]", "value": "no binding"}]}, {"binder": "UUAGGGUUAGUGUUAGUGUUAGGG (ssRNA)", "note": "[ssRNA]", "values": [{"measurement": "binding result", "setting": "[3]", "value": "no binding"}, {"measurement": "binding result", "setting": "[1]", "value": "no binding"}, {"measurement": "binding result", "setting": "[2]", "value": "no binding"}, {"measurement": "binding result", "setting": "[4]", "value": "binds"}, {"measurement": "binding result", "setting": "[5]", "value": "no binding"}]}, {"binder": "AGGGTTAGGGTTAGGGTTAGGG (structured_DNA)", "note": "[Htelo]", "values": [{"measurement": "binding result", "setting": "[6]", "value": "no binding"}, {"measurement": "binding result", "setting": "[3]", "value": "no binding"}, {"measurement": "Kd", "setting": "[7]", "value": "6.7 ± 2", "unit": "nM"}, {"measurement": "binding result", "setting": "[1]", "value": "no binding"}, {"measurement": "binding result", "setting": "[2]", "value": "no binding"}]}, {"binder": "AGGGTTAGTGTTAGTGTTAGGG (ssDNA)", "note": "[ssDNA]", "values": [{"measurement": "binding result", "setting": "[3]", "value": "no binding"}, {"measurement": "binding result", "setting": "[1]", "value": "no binding"}, {"measurement": "binding result", "setting": "[2]", "value": "no binding"}, {"measurement": "binding result", "setting": "[5]", "value": "no binding"}]}, {"binder": "UUAGGGUUAGGGUUAGGGUUAGGG (structured_RNA)", "note": "[TERRA]", "values": [{"measurement": "binding result", "setting": "[6]", "value": "no binding"}, {"measurement": "binding result", "setting": "[3]", "value": "no binding"}, {"measurement": "Kd", "setting": "[7]", "value": "6.2 ± 2", "unit": "nM"}, {"measurement": "binding result", "setting": "[1]", "value": "no binding"}, {"measurement": "binding result", "setting": "[2]", "value": "no binding"}]}, {"binder": "B2", "values": [{"measurement": "binding result", "setting": "[1]", "value": "no binding"}, {"measurement": "binding result", "setting": "[2]", "value": "no binding"}]}]}
